B1: mouse MUSK Fz domain and C-terminal flanking sequence (D307 to T494), Avi-His6, biotinylated (domain or fragment)
chain: DSQGYCAQYRGEVCDAVLAKDALVFFNTSYRDPEDAQELLIHTAWNELKAVSPLCRPAAEALLCNHLFQECSPGVVPTPMPICREYCLAVKELFCAKEWQAMEGKAHRGLYRSGMHLLPVPECSKLPSMHRDPTACTRLPYLDYKKENITTFPSITSSRPSADIPNLPASTSSFAVSPAYSMT
modifications: biotin (on the Avi tag, BirA in vitro)
B2: MUSK agonist antibody X17, mouse IgG2a-LALAPG format (antibody, V domains shown)
VH: EVQLVESGGGLVQPGGSLRLSCAASGFTISYSSIHWVRQAPGKGLEWVASIYSSSGSTYYADSVKGRFTISADTSKNTAYLQMNSLRAEDTAVYYCARGDHGYYVFGYLGMDYWGQGTLVTVSS
VL: DIQMTQSPSSLSASVGDRVTITCRASQSVSSAVAWYQQKPGKAPKLLIYSASSLYSGVPSRFSGSRSGTDFTLTISSLQPEDFATYYCQQSYKPGALITFGQGTKVEIK
B3: human MUSK Fz domain and C-terminal flanking sequence (K314 to T495), Avi-His6, biotinylated (domain or fragment)
chain: KGYCAQYRGEVCNAVLAKDALVFLNTSYADPEEAQELLVHTAWNELKVVSPVCRPAAEALLCNHIFQECSPGVVPTPIPICREYCLAVKELFCAKEWLVMEEKTHRGLYRSEMHLLSVPECSKLPSMHWDPTACARLPHLDYNKENLKTFPPMTSSKPSVDIPNLPSSSSSSFSVSPTYSMT
modifications: biotin (on the Avi tag, BirA in vitro)
B4: human MUSK full-length extracellular region (E22 to T495), Avi-His6, biotinylated (domain or fragment)
chain: EKLPKAPVITTPLETVDALVEEVATFMCAVESYPQPEISWTRNKILIKLFDTRYSIRENGQLLTILSVEDSDDGIYCCTANNGVGGAVESCGALQVKMKPKITRPPINVKIIEGLKAVLPCTTMGNPKPSVSWIKGDSPLRENSRIAVLESGSLRIHNVQKEDAGQYRCVAKNSLGTAYSKVVKLEVEVFARILRAPESHNVTFGSFVTLHCTATGIPVPTITWIENGNAVSSGSIQESVKDRVIDSRLQLFITKPGLYTCIATNKHGEKFSTAKAAATISIAEWSKPQKDNKGYCAQYRGEVCNAVLAKDALVFLNTSYADPEEAQELLVHTAWNELKVVSPVCRPAAEALLCNHIFQECSPGVVPTPIPICREYCLAVKELFCAKEWLVMEEKTHRGLYRSEMHLLSVPECSKLPSMHWDPTACARLPHLDYNKENLKTFPPMTSSKPSVDIPNLPSSSSSSFSVSPTYSMT
modifications: biotin (on the Avi tag, BirA in vitro)
B5: mouse MUSK full-length extracellular region (E22 to T494), Avi-His6, biotinylated (domain or fragment)
chain: EKLPKAPVITTPLETVDALVEEVATFMCAVESYPQPEISWTRNKILIKLFDTRYSIRENGQLLTILSVEDSDDGIYCCIANNGVGGAVESCGALQVKMKPKITRPPINVKIIEGLKAVLPCTTMGNPKPSVSWIKGDNALRENSRIAVLESGSLRIHNVQKEDAGQYRCVAKNSLGTAYSKLVKLEVEVFARILRAPESHNVTFGSFVTLRCTAIGIPVPTISWIENGNAVSSGSIQESVKDRVIDSRLQLFITKPGLYTCIATNKHGEKFSTAKAAATVSIAEWSKSQKDSQGYCAQYRGEVCDAVLAKDALVFFNTSYRDPEDAQELLIHTAWNELKAVSPLCRPAAEALLCNHLFQECSPGVVPTPMPICREYCLAVKELFCAKEWQAMEGKAHRGLYRSGMHLLPVPECSKLPSMHRDPTACTRLPYLDYKKENITTFPSITSSRPSADIPNLPASTSSFAVSPAYSMT
modifications: biotin (on the Avi tag, BirA in vitro)

Key:
Test in all cases: FACS
X2 hIgG = target: X2 hIgG
X17 hIgG = target: X17 hIgG
X3 hIgG = target: X3 hIgG
X3 mIgG = target: X3 mIgG
[1] = target: B5
[2] = target: B3
[3] = target: B1
[4] = target: B4

Kd (X2 hIgG)	Kd (X17 hIgG)	Kd (X3 hIgG)	Kd (X3 mIgG)	Kd [1]	Kd [2]	Kd [3]	Kd [4]	Binder
0.265 nM	0.68 nM	0.07 nM	0.096 nM	–	–	–	–	B1
–	–	–	–	1.1 nM	0.61 nM	0.74 nM	0.97 nM	B2
0.421 nM	0.56 nM	0.057 nM	0.079 nM	–	–	–	–	B3
0.478 nM	0.86 nM	0.074 nM	0.113 nM	–	–	–	–	B4
0.307 nM	1.04 nM	0.079 nM	0.118 nM	–	–	–	–	B5

— PMC8277574 (2021)
